Data on three molecules can be found in PMC5640506 (2017).

Assay [1] addresses T1, K11-linked diUb (UniProt P0CG47 1-76, K11-linked: one Ub is ubiquitinated on the side chain of K11). In words: MST.
A further assay has as its target K48 diUb (Homo sapiens). In words: MST.
For a further assay, the target named is K33-linked diUb (UniProt P0CG47 1-76, K33-linked: one Ub is ubiquitinated on the side chain of K33). In words: MST.
For the next assay, the target named is K29 diUb (Homo sapiens). In words: MST.
Another assay deals with K63 diUb (Homo sapiens). Nature of the assay: MST.
Assay [2] addresses T1, K11-linked diUb. In words: ITC. Background: In ITC the heat of successive injections is recorded.
A further assay has as its target K6-linked diUb (UniProt P0CG47 1-76, K6-linked: one Ub is ubiquitinated on the side chain of K6). Nature of the assay: MST.

B1: dimerized K6 affimer, fluorescently labelled (designed binder)
chain: ENSLEIEELARFAVDEHNKKENALLEFVRVVKAKEQSWKDDELFDTMYYLTLEAKDGGKKKLYEAKVWVKASGIVMYQMNFKELQEFKPVENSLEIEELARFAVDEHNKKENALLEFVRVVKAKEQSWKDDELFDTMYYLTLEAKDGGKKKLYEAKVWVKASGIVMYQMNFKELQEFKPV
modifications: Alexa488-maleimide or NT-647-maleimide on a single cysteine
With B1, the Kd (usually a measure of binding affinity in units of concentration) with K11-linked diUb [1] stood at 49 µM; in the assay with K48 diUb it was 82 µM; in the assay with K33-linked diUb it was 120 µM; with K29 diUb it was 55 µM; with K63 diUb it was 130 µM.

B2: K33 affimer (designed binder)
chain: MSAATGVRAVPGNENSLEIEELARFAVDEHNKKENALLEFVRVVKAKEQIWEMDASKETMYYLTLEAKDGGKKKLYEAKVWVKMTHWIGAMNNFKELQEFKPVGDAAAAHHHHHHG
In turn, B2 came in with a dissociation constant Kd with K11-linked diUb [2] of 0.007 µM. In other words, the single-digit nanomolar range.

B3: dimerized K33/K11 affimer, fluorescently labelled (designed binder)
chain: ENSLEIEELARFAVDEHNKKENALLEFVRVVKAKEQIWEMDASKETMYYLTLEAKDGGKKKLYEAKVWVKMTHWIGAMNNFKELQEFKPVENSLEIEELARFAVDEHNKKENALLEFVRVVKAKEQIWEMDASKETMYYLTLEAKDGGKKKLYEAKVWVKMTHWIGAMNNFKELQEFKPV
modifications: Alexa488-maleimide or NT-647-maleimide on a single cysteine
As for B3, the dissociation constant (Kd) stood at 210 µM with K6-linked diUb, 120 µM with K48 diUb, 61 µM with K29 diUb and 83 µM with K63 diUb.
